Assay results published in patent US9988424 (DUKE UNIVERSITY, dated 2018).
Substitutions are numbered along the chain they refer to. Like-named read-outs stand apart in the source and are kept apart here.

Tests used:
Assay in all cases: ELISA, OD405
[1] = biological target: T1, gp70 C.1086 V1/V2 (HIV-1 V1V2 on murine leukemia virus gp70)
T1 construct: also called C.gp70 1086C V1V2; C.1086gp70V1V2
T1 chain: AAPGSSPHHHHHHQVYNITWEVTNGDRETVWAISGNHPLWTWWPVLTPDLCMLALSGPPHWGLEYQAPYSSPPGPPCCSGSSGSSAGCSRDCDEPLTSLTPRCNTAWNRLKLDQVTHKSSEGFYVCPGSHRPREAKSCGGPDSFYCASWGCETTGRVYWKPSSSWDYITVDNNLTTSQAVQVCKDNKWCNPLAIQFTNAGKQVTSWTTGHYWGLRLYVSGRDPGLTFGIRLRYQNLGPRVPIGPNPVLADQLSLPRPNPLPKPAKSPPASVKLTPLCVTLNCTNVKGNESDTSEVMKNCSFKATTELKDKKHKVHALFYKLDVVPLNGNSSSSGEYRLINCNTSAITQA

[2] = biological target: B.63521 gp140C
[3] = biological target: B. 684-6 gp140C
[4] = biological target: T2, AE.con gp140CF
T2 construct: also called AE.con.env03 gp140CF

[5] = biological target: T3, B.63521_V1V2 Tags
T3 Env construct: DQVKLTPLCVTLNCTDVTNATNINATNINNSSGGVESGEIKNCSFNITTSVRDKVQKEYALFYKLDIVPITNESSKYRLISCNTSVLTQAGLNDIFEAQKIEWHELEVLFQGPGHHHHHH

[6] = biological target: T4, D.9009SA V1V2 Tags
T4 Env construct: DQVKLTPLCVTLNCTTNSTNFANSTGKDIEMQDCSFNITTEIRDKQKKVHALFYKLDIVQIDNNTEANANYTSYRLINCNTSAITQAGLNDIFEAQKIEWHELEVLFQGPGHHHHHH

[7] = biological target: B.040 gp140C
[8] = biological target: T5, B.Case A2 V1/V2 Tags
T5 Env construct: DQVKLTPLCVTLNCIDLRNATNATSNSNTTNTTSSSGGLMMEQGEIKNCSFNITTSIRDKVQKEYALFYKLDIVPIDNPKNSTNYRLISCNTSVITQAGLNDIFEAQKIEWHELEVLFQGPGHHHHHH

[9] = biological target: T6, AE.97CNG2XF gp140CF (HIV-1)
T6 construct: also called E.97CNGX2F gp140CF

[10] = biological target: T7, B.62357 140C
T7 construct: also called B.62357 gp140C

[11] = biological target: T8, C.1086 gp140
T8 construct: also called C.1086gp140C

[12] = biological target: T9, G.con gp140CF
T9 construct: also called G.con.env03 gp140CF

[13] = biological target: T10, A.9004SS V1V2 Tags
T10 Env construct: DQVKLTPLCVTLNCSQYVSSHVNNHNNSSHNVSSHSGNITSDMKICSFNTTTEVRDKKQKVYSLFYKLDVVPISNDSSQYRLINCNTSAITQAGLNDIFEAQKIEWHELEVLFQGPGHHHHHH

[14] = biological target: T11, B.con gp140CF
T11 construct: also called B.con.env03 gp140CF

[15] = biological target: C.CAP206 gp140CF.12 (HIV-1)
[16] = biological target: T12, SIV CPZ US-1 gp140CF (SIVcpz)
T12 construct: also called US-1 SIVCPZ gp140CF
T12 chain: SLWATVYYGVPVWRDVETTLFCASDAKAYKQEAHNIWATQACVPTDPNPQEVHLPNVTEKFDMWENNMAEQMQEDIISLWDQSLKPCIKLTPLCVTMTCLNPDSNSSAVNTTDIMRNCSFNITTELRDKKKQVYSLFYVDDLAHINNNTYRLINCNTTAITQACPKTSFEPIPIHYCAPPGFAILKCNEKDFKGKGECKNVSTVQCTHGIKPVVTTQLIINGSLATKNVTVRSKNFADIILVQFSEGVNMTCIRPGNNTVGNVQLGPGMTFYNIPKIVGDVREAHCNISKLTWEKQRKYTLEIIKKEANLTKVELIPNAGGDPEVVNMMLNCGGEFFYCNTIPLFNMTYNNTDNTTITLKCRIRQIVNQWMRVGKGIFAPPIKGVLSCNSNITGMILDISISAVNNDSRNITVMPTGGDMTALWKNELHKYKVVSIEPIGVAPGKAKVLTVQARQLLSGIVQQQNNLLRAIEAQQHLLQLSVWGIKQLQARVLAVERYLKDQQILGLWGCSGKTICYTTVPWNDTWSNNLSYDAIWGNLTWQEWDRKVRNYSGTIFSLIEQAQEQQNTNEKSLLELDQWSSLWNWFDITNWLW

[17] = biological target: T13, B.HXB/BAL gp140CFI (HIV-1, UniProt P04578 33-680)
T13 construct: also called B.HxB/Ba gp140 CFI

[18] = biological target: B. 681-7 gp140C
[19] = biological target: Con 6 gp120
[20] = biological target: B.9021 gp140C (HIV-1)
[21] = biological target: T1, gp70 C.1086 V1/V2
[22] = biological target: B.63521 gp140C; remark: listed apart in the source
[23] = biological target: B. 684-6 gp140C; remark: listed apart in the source
[24] = biological target: T2, AE.con gp140CF; remark: listed apart in the source
[25] = biological target: T3, B.63521_V1V2 Tags
[26] = biological target: T4, D.9009SA V1V2 Tags
[27] = biological target: B.040 gp140C; remark: listed apart in the source
[28] = biological target: T5, B.Case A2 V1/V2 Tags
[29] = biological target: T6, AE.97CNG2XF gp140CF; remark: listed apart in the source
[30] = biological target: T7, B.62357 140C; remark: listed apart in the source
[31] = biological target: T8, C.1086 gp140; remark: listed apart in the source
[32] = biological target: T9, G.con gp140CF; remark: listed apart in the source
[33] = biological target: T10, A.9004SS V1V2 Tags
[34] = biological target: T11, B.con gp140CF; remark: listed apart in the source
[35] = biological target: C.CAP206 gp140CF.12 (HIV-1); remark: listed apart in the source
[36] = biological target: T12, SIV CPZ US-1 gp140CF
[37] = biological target: T13, B.HXB/BAL gp140CFI; remark: listed apart in the source
[38] = biological target: B. 681-7 gp140C; remark: listed apart in the source
[39] = biological target: Con 6 gp120; remark: listed apart in the source

Measured: binding result

B1: CH01_RUA1 (antibody, V domains shown)
VH: EVQLVESGGGVVRPGGSLRLSCAASGFTFDDYGMSWVRQAPGKGLEWVSGINWNGGSTGYADSVKGRFTISRDNAKNSLYLQMNSLRAEDTALYYCARGTDYTIDDQGIRYQGSGTFWYFDLWGRGTLVTVSS
VL: not shown
notes: also called CH01 UA 1; CH01_UA 1
no binding (tested: 10 ug/ml): [1] | [2] | [3] | [4] | [5] | [6] | [7] | [8] | [9] | [10] | [11] | [12] | [13] | [14] | [15] | [16] | [17] | [18] | [19] | [20]

B2: CH01_RUA2 (antibody, V domains shown)
VH: B1 VH with R110L
VL: not shown
notes: also called CH01 UA 2; CH01_UA 2
no binding (tested: 10 ug/ml): [21] | [22] | [23] | [24] | [25] | [26] | [27] | [28] | [29] | [30] | [31] | [32] | [33] | [34] | [35] | [36] | [37] | [38] | [39]
